Results as given in PMC10427353, “MSL1 Promotes Liver Regeneration by Driving Phase Separation of STAT3 and Histone H4 and Enhancing Their Acetylation” (Advanced Science, 2023).

Legend:
[1] = target: T1, STAT3 (recombinant, pET‐28a) (mouse, UniProt P42227 1-770); experiment: co-sedimentation; sedimentation assay of condensates: purified proteins mixed in phase separation buffer (20 mM HEPES pH 7.8, NaCl, PEG‐8000), 15 000 g for 10 min, supernatant and pellet on SDS–PAGE with Coomassie staining; conditions: both partners purified
T1 construct: STAT3 in pET‐28a; cDNA amplified from mouse liver; The legend of the sedimentation assay names 'STAT3'; source: E. coli BL21, purified (HiTrap HP chelating column)

[2] = target: T2, H4 (recombinant, pET‐28a) (mouse, UniProt P62806 1-103); experiment: as above; conditions: both partners purified
T2 construct: histone H4 in pET‐28a; cDNA amplified from mouse liver; The legend of the sedimentation assay names 'H4'; also called histone H4; source: E. coli BL21, purified (HiTrap HP chelating column)

T1 sequence (P42227 whole entry): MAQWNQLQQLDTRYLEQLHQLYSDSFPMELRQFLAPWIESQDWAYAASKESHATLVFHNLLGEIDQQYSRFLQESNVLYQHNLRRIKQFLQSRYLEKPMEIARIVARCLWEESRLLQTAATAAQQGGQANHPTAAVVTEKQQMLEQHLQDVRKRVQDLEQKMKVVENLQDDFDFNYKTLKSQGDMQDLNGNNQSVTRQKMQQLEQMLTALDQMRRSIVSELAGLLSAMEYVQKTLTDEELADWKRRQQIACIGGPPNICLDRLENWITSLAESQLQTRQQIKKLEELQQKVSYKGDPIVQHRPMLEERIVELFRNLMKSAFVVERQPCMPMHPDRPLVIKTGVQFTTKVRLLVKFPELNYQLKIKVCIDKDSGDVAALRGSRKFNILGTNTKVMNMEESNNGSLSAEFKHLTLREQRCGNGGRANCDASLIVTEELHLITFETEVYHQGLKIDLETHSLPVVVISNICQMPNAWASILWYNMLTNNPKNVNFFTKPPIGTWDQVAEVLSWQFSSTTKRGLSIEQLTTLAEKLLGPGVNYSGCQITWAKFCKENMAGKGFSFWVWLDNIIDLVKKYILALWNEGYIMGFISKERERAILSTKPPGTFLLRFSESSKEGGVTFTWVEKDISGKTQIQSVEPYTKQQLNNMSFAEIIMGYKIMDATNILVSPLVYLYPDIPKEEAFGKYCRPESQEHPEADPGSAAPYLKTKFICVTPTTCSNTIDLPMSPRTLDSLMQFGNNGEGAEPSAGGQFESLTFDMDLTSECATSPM

B1: MSL1 (recombinant, pET‐28a) (natural protein, mouse, UniProt Q6PDM1 1-616, looked up)
chain: MTMRSAVFKAAAAPAGGNPEQRLDYERAAALGGPEDESGAAEAHFLPRHRKLKEPGPPLASSQGGSPSPSPAGCGGGKGRGLLLPAGAAPGQQEESWGGSVPLPCPPPATKQAGIGGEPVAAGAGCSPRPKYQAVLPIQTGSIVVAAAKEPTPWAGDKGGAAPPAATASDPAGPPPLPLPGPPPLAPTATAGTLAASEGRWKSIRKSPLGGGGGSGASSQAACLKQILLLQLDLIEQQQQQLQAKEKEIEELKSERDTLLARIERMERRMQLVKRDNEKERHKLLQGYEPEEREEAELSEKIKLERQPELCETSQALPSKPFSCGRSGKGHKRKTPFGNTERKTPVKKLAPEFSKVKTKTPKHSPIKEEPCGSISETVCKRELRSQETPEKPRSSVDTPPRLSTPQKGPSTHPKEKAFSSEMEDLPYLSTTEMYLCRWHQPPPSPLPLRESSPKKEETVARCLMPSSVAGETSVLAVPSWRDHSVEPLRDPNPSDILENLDDSVFSKRHAKLELDEKRRKRWDIQRIREQRILQRLQLRMYKKKGIQESEPEVTSFFPEPDDVESLLITPFLPVVAFGRPLPKLAPQNFELPWLDERSRCRLEIQKKHTPHRTCRK
notes: MSL1 in pET‐28a; cDNA amplified from mouse liver; The legend of the sedimentation assay names 'MSL1'; source: E. coli BL21, purified (HiTrap HP chelating column)
- binding result [1]: binds
- binding result [2]: binds
